Experiment [1] concerns the target T1, Human PD-L1 (human, UniProt Q9NZQ7 19-127, limits assumed).
T1 construct: also called huPD-L1; hPD-L1
As to the kind of experiment: ELISA on plate-coated human PD-L1, corrected absorbance 450-570 nm. How it is done: For ELISA binding assays, 384 well or 96 well plates were coated with […] and incubated overnight at 4° C., protected from light. Plates were washed twice with PBS/0.05% Tween 20 before blocking with block buffer (3% milk protein in PBS) for 1 hour at room temperature. Next, test agent or controls were loaded and incubated for 1 hour at room temperature. Plates were then washed three times with PBS/0.05% Tween 20. Finally, HRP conjugated secondary antibody, diluted 1/5,000 in block buffer, was added and incubated for 1 hour at room temperature. Plates were again washed three times with PBS/0.05% Tween before addition of TMB substrate and incubation for 6 minutes at room temperature. Subsequently, the reaction was stopped with stop solution. Absorbance was read at 450 nm and 570 nm. Absorbance at 570 nm was subtracted from absorbance at 450 nm for each plate.

The target in experiment [2] is T1, Human PD-L1. As to the kind of experiment: ELISA on plate-coated human PD-L1, sample pre-incubated with MMP12 for 60 min.
Experiment [3] concerns the target T1, Human PD-L1. The experiment is described as follows: ELISA on plate-coated human PD-L1, sample pre-incubated with MMP12 for 5 min.
In experiment [4] the target is T1, Human PD-L1. As to the kind of experiment: ELISA on plate-coated human PD-L1, sample pre-incubated with MMP12 for 30 min.
Experiment [5] has as its target T1, Human PD-L1. As to the kind of experiment: ELISA on plate-coated human PD-L1, sample pre-incubated with MMP12 for 15 min.
Experiment [6] deals with T1, Human PD-L1. The experiment is described as follows: ELISA on plate-coated human PD-L1, sample pre-incubated with MMP12 for 5 min. This is another data set of the same source.
Experiment [7] addresses T1, Human PD-L1. The experiment is described as follows: ELISA on plate-coated human PD-L1, sample pre-incubated with MMP12 for 30 min. This is another data set of the same source.
Experiment [8] addresses T1, Human PD-L1. As to the kind of experiment: ELISA on plate-coated human PD-L1, sample pre-incubated with MMP12 for 60 min. The source holds these as a separate data set.
The target in experiment [9] is T1, Human PD-L1. As to the kind of experiment: ELISA on plate-coated human PD-L1, sample pre-incubated with MMP12 for 15 min. This is another data set of the same source.
For experiment [10], the target named is human CD3 on Jurkat cells (human, UniProt P07766 23-207). As to the kind of experiment: cell-based or functional assay.
Chain of human CD3 on Jurkat cells (P07766 23-207): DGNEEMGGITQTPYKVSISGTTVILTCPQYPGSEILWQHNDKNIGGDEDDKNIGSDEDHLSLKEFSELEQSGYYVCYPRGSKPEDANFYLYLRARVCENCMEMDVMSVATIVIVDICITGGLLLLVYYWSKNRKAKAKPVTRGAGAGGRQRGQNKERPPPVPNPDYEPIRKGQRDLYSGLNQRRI

B1: LB218 (intact) (bispecific antibody, human IgG1, kappa, lambda)
heavy: not shown
light: not shown
chain: SCPPCPAPEAAGAPSVFLFPPKPKDTLMISRTPEVTCVVVDVSHEDPEVKFNWYVDGVEVHNAKTKPREEQYNSTYRVVSVLTVLHQDWLNGKEYKCKVSNKALPAPIEKTISKAKGQPREPQVCTLPPSRDELTKNQVSLSCAVKGFYPSDIAVEWESNGQPENNYKTTPPVLDSDGSFFLVSKLTVDKSRWQQGNVFSCSVMHEALHNHYTQKSLSLSPGK
notes: Asymmetric LockBody, uncleaved; also called intact LB218
Regarding B1, in the experiment with Human PD-L1 [1], the concentration for a half-maximal effect (EC50 (read off the curve)) is roughly 200 pM.

B2: LB218 after incubation with MMP12 (bispecific antibody)
heavy: not shown
light: not shown
chain: SCPPCPAPEAAGAPSVFLFPPKPKDTLMISRTPEVTCVVVDVSHEDPEVKFNWYVDGVEVHNAKTKPREEQYNSTYRVVSVLTVLHQDWLNGKEYKCKVSNKALPAPIEKTISKAKGQPREPQVCTLPPSRDELTKNQVSLSCAVKGFYPSDIAVEWESNGQPENNYKTTPPVLDSDGSFFLVSKLTVDKSRWQQGNVFSCSVMHEALHNHYTQKSLSLSPGK
notes: Digest of LB218 with human MMP12; a mixture of products; also called MMP12 treated LB218; digested LB218
As for B2, the “EC50 (read off the curve)” value was roughly 700 pM with Human PD-L1 [2], roughly 100 pM with Human PD-L1 [3], roughly 500 pM with Human PD-L1 [4] and roughly 200 pM in the experiment with Human PD-L1 [5].

B3: LB213 after incubation with MMP12 (bispecific antibody)
heavy: not shown
light: not shown
chain: SCPPCPAPEAAGAPSVFLFPPKPKDTLMISRTPEVTCVVVDVSHEDPEVKFNWYVDGVEVHNAKTKPREEQYNSTYRVVSVLTVLHQDWLNGKEYKCKVSNKALPAPIEKTISKAKGQPREPQVCTLPPSRDELTKNQVSLSCAVKGFYPSDIAVEWESNGQPENNYKTTPPVLDSDGSFFLVSKLTVDKSRWQQGNVFSCSVMHEALHNHYTQKSLSLSPGK
notes: Digest of LB213 with human MMP12; a mixture of products; also called MMP12 treated LB213; digested LB213
Take B3: the “EC50 (read off the curve)” value with Human PD-L1 [6] is roughly 200 pM; in the experiment with Human PD-L1 [7], roughly 300 pM; with Human PD-L1 [8], roughly 500 pM; in the experiment with Human PD-L1 [9] it was roughly 200 pM.

B4: LB213 (intact) (bispecific antibody, human IgG1, kappa, lambda)
heavy: not shown
light: not shown
chain: SCPPCPAPEAAGAPSVFLFPPKPKDTLMISRTPEVTCVVVDVSHEDPEVKFNWYVDGVEVHNAKTKPREEQYNSTYRVVSVLTVLHQDWLNGKEYKCKVSNKALPAPIEKTISKAKGQPREPQVCTLPPSRDELTKNQVSLSCAVKGFYPSDIAVEWESNGQPENNYKTTPPVLDSDGSFFLVSKLTVDKSRWQQGNVFSCSVMHEALHNHYTQKSLSLSPGK
notes: Asymmetric LockBody, uncleaved; also called intact LB213
Regarding B4, the 50% effective concentration (EC50 (read off the curve)) with Human PD-L1 [1] was roughly 200 pM.

B5: mouse SP34 IgG (antibody, V domains shown)
VH: EVQLVESGGGLVQPKGSLKLSCAASGFTFNTYAMNWVRQAPGKGLEWVARIRSKYNNYATYYADSVKDRFTISRDDSQSILYLQMNNLKTEDTAMYYCVRHGNFGNSYVSWFAYWGQGTLVTVSS
VL: QAVVTQESALTTSPGETVTLTCRSSTGAVTTSNYANWVQEKPDHLFTGLIGGTNKRAPGVPARFSGSLIGDKAALTITGAQTEDEAIYFCALWYSNLWVFGGGTKLTVL
As for B5, the “EC50, CD3 activation signal in Jurkat reporter cell line (luciferase)” value in experiment [10] amounted to 200 pM.

B6: CD3-IgG-002 (antibody, V domains shown)
VH: EVQLVESGGGLVQPGGSLRLSCAASGFTFNTYAMNWVRQAPGKGLEWVGRIRSKYNNYATYYADSVKGRFTISRDDSKNSLYLQMNSLKTEDTAVYYCARHGNFGNSYVSWFAYWGQGTLVTVSS
VL: QAVVTQEPSLTVSPGGTVTLTCRSSTGAVTTSNYANWVQQKPDHLPRALIGGTNKRAPGVPARFSGSLLGDKAALTISGAQPEDEAIYYCALWYSNLWVFGGGTKLTVL
As to B6, in experiment [10], the “EC50, CD3 activation signal in Jurkat reporter cell line (luciferase)” value came out at 900 pM and the “fold difference of apparent EC50 against SP34 / Anti-CD3-IgG-001, Jurkat reporter” value was roughly 5 fold.

Values taken from patent publication US20250109206A1 (CENTESSA PHARMACEUTICALS UK, published 2025).
